For this assay, the target named is untagged RNF8 FHA domain (UniProt O76064). The experiment in a line: ITC.

By Kd is commonly meant the constant that tells how readily two partners part at equilibrium. High values mean a looser complex, low ones a tighter complex.

Chain of UniProt O76064 (O76064 38-92): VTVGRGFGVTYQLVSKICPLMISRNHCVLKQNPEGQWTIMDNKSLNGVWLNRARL

Substance ICP0 pT67 peptide returned a Kd of 833 nM.

The values are drawn from paper PMC3648639.
